Data: patent US8975044B2, “Polynucleotides encoding for frizzled-binding agents and uses thereof” (OncoMed Pharmaceuticals, Inc., priority 2008, dated 2015)
Entries after “also recorded” stand apart in the source; their conditions may differ.

T1: FZD8 (Homo sapiens, UniProt Q9H461, E68Q/V69L)
T1 construct: N-terminus of the Fri domain of FZD8 in turn fused to the transmembrane domain and intracellular domain of CD4 protein; expressed in transfected cells; host or cells: HEK293
T1 sequence (Q9H461 28-158 E68Q/V69L): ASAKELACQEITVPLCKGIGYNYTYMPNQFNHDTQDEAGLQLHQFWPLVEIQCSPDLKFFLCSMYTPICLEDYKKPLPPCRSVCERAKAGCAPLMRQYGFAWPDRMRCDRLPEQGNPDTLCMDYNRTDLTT

T2: FZD8 (Homo sapiens, UniProt Q9H461, G66A/L67A)
T2 construct: N-terminus of the Fri domain of FZD8 in turn fused to the transmembrane domain and intracellular domain of CD4 protein; expressed in transfected cells; host or cells: HEK293
T2 sequence (Q9H461 28-158 G66A/L67A): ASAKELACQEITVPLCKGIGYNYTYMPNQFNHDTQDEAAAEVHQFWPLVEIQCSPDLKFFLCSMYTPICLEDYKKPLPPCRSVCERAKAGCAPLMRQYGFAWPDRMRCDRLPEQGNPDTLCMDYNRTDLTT

T3: FZD8 (Homo sapiens, UniProt Q9H461, H70A/Q71E)
T3 construct: N-terminus of the Fri domain of FZD8 in turn fused to the transmembrane domain and intracellular domain of CD4 protein; expressed in transfected cells; host or cells: HEK293
T3 sequence (Q9H461 28-158 H70A/Q71E): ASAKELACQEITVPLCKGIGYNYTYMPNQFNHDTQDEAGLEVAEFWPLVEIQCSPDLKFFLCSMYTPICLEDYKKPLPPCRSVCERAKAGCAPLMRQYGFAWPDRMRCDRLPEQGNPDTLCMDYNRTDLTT


Key:
Wnt signaling pathway = assay: 8xTCF luciferase reporter assay in STF293 cells with Wnt3A-conditioned medium; format: cell-based, human; conditions: range of antibody concentrations, 18 hours
Method: STF293 cells were cultured in DMEM supplemented with antibiotics and 10% FCS. The STF293 cells are 293 cells in which the following have been stably integrated: (1) an 8×TCF Luc reporter vector containing […] of the TCF binding site linked to a promoter upstream of a firefly luciferase reporter gene to measure canonical Wnt signaling levels (Gazit et al., 1999, Oncogene 18:5959-66) and (2) a Renilla luciferase reporter (Promega; Madison, Wis.) as an internal control for transfection efficiency. The cells were added to cultures plates. The FZD antibodies to be tested (or no antibodies) were added. The cells were then incubated in the presence or absence of Wnt3A-conditioned medium that had been prepared from L cells that stably express Wnt3a (ATCC CRL-2647) or control conditioned media from L cells not overexpressing Wnt3A (ATCC cell line CRL-2648). After overnight incubation, luciferase levels were measured using a dual luciferase assay kit (Promega; Madison, Wis.) with firefly luciferase activity normalized to Renilla luciferase activity.
The ability of the 18R8 and 18R5 antibodies to inhibit Wnt-induced pathway activation was thus determined. STF293 cells were treated with different concentrations of 18R8 or 18R5 IgG antibodies and Wnt3A-conditioned medium was added. The cells were assayed 18 hours later using the dual luciferase assay kit.

FZD8 [1] = molecular target: T1, FZD8; assay: Epitope mapping by FACS on FZD8 Fri domain variants on HEK293 cells; format: binding; conditions: amino acids 68-69 mutated from EV to QL
Method: (§1) To identify the FZD epitope recognized by the 18R8 IgG antibody, epitope mapping was performed. Flow cytometry analysis of cell surface expressed FZD was utilized to measure antibody binding. Mammalian expression plasmid vectors comprising a CMV promoter upstream of polynucleotides that encode an N-terminal signal sequence FLAG epitope tag fused to the N-terminus of the Fri domain of FZD8 in turn fused to the transmembrane domain and intracellular domain of CD4 protein were generated by standard recombinant technology. This expression construct allows expression of the FZD8 Fri domain on the cell surface, as well as expression of a FLAG epitope tag to monitor expression. Site-direct mutagenesis was then used to modify selected amino acids within the extracellular domain of FZD. HEK293 cells were co-transfected with expression vectors encoding the FZD and the transfection marker GFP. Forty-eight hours post-transfection, cells were collected in suspension and incubated on ice with anti-FZD antibody or control IgG to detect background antibody binding. The cells were washed and primary antibodies detected with anti-antibody secondary antibodies conjugated to a fluorescent chromophore. Labeled cells were then analyzed by flow cytometry to measure the binding of anti-FZD antibody to cell surface FZD.
(§2) Epitope mapping for the anti-FZD antibody 44R24 was performed in a manner similar to that described above in Example 5 for the antibodies 18R8 and 18R5. The ability of 44R24 to bind to a similar epitope as 18R8 was assessed by flow cytometry using a series of amino acid variants of FZD8 previously shown to disrupt binding of 18R8 (see Example 5 and FIGS. 6 and 7).

FZD8 [2] = molecular target: T2, FZD8; assay: as above; format: binding; conditions: amino acids 66-67 mutated from GL to AA
Method: as §1, §2

FZD8 [3] = molecular target: T3, FZD8; assay: as above; format: binding; conditions: residues 70-71 changed from HQ to AE
Method: as §1, §2

Wnt target genes [4] = assay: qPCR of Wnt target genes in tumor of OMP-PN13-bearing mice; format: in vivo, NOD/SCID mice
Method: (§3) Frozen OMP-PN13 tumor cells that have been passaged twice in mice were obtained from Oncomed's tumor bank. They were thawed and injected subcutaneously into the left flank of NOD/SCID mice immediately following thawing. ˜ 25,000 viable cells were injected per animal. The mice were monitored weekly for tumor growth. After their onset, the size of the tumors was measured once weekly by caliper. 200-300 mm^3 tumor-bearing mice were dispatched in treatment groups that each contained 5 animals. […] Ab treatment was initiated the day after randomization. LZ1 was used as the negative control Ab. 3 doses of 10 mg/kg of Ab were administered via intra-peritoneal injection over a 12-day period. Mice were euthanized 24 hours after the last injection. Tumor, duodenum and liver were harvested.
(§4) Total RNAs were also extracted from tumor, duodenum and liver for Wnt target gene expression analyses using qPCR.
Tissues were immediately transferred into RNAlater (QIAGEN) at the time of harvest. RNA was extracted using the QIAGEN RNeasy for Fibrous Tissue mini kit according to the manufacturer instructions. […] All 5 tumors of each treatment group were analyzed. […] ABI SDS 2.2.1 software was used to analyze the data and calculate DeltaCt values that were converted into relative quantities. […] Fold inhibition factors were then calculated relative to control antibody (LZ1).

Wnt target genes [5] = assay: qPCR of Wnt target genes in liver of OMP-PN13-bearing mice; format: in vivo, NOD/SCID mice
Method: as §3, §4
Tissues were immediately transferred into RNAlater (QIAGEN) at the time of harvest. RNA was extracted using the QIAGEN RNeasy for Fibrous Tissue mini kit according to the manufacturer instructions. 50 ng total RNA were submitted to gene expression analyses using ABI one-step RT-PCR protocol and reagents. GusB gene expression was used as endogenous control. Triplicates were setup for each sample. All 5 tumors of each treatment group were analyzed. ABI 7900 TaqMan machine was used to run the experiments. ABI SDS 2.2.1 software was used to analyze the data and calculate DeltaCt values that were converted into relative quantities. The triplicate values of all 5 tumors were averaged for each treatment group. Fold inhibition factors were then calculated relative to control antibody (LZ1).

Cytokeratin 7 = Cytokeratin 7 immunohistochemistry on treated C28 tumors; format: in vivo, Nod-Scid mice; conditions: tumors harvested after treatment, 15 mg/kg twice per week
Method: Following treatment of the animals in the experiment shown in FIG. 58, tumors were harvested, fixed in formalin, embedded in paraffin, and cut in 5 micron sections. Tumor sections were analyzed for Cytokeratin 7 expression, a marker of colon cell differentiation, by immunohistochemistry (Vectastain kit, Vector Labs). Cytokeratin 7 expression was seen to be elevated after treatment with 44R24 or 18R5 (FIG. 59).

[6] = fold relative to control antibody LZ1, 3 doses of 10 mg/kg over 12 days

Molecule	inhibition of Wnt3A-induced TCF signaling (Wnt signaling pathway)	binding to FZD8 variant (FZD8 [1])	binding to FZD8 variant (FZD8 [2])	binding to FZD8 variant (FZD8 [3])	inhibition of Wnt target gene in tumor (Wnt target genes [4]; relative to LZ1)	Liver GluI (Wnt target genes [5]; [6])	Liver Lect2 (Wnt target genes [5]; [6])	Liver Lgr5 (Wnt target genes [5]; [6])	inhibition of Wnt target gene in liver (Wnt target genes [5]; relative to LZ1)	Cytokeratin 7 expression (Cytokeratin 7)	tumor Axin2 (Wnt target genes [4]; [6])	Liver Axin2 (Wnt target genes [5]; [6])	Liver Rhbg (Wnt target genes [5]; [6])
18R5: human anti-FZD antibody; VH SEQ ID NO:10 (as 18R8), VL SEQ ID NO:14; binds FZD1, 2, 5, 7, 8 (antibody, V domains shown, 18R5/18R8 heavy chain variable region (VH); 18R5 light chain variable region (VL)) VH: EVQLVESGGGLVQPGGSLRLSCAASGFTFSHYTLSWVRQAPGKGLEWVSVISGDGSYTYYADSVKGRFTISSDNSKNTLYLQMNSLRAEDTAVYYCARNFIKYVFANWGQGTLVTVSS VL: DIELTQPPSVSVAPGQTARISCSGDNIGSFYVHWYQQKPGQAPVLVIYDKSNRPSGIPERFSGSNSGNTATLTISGTQAEDEADYYCQSYANTLSLVFGGGTKLTVLG	Greater inhibition; also recorded: inhibit Wnt signaling	reduced staining	reduced staining	reduced staining	2.3 ×	−19x	−8x	−26x	8 ×	elevated			
18R8: human anti-FZD antibody from phage display; VH SEQ ID NO:10, VL SEQ ID NO:12; binds FZD1, 2, 5, 7, 8 (antibody, V domains shown, 18R5/18R8 heavy chain variable region (VH); 18R8 light chain variable region (VL)) VH: EVQLVESGGGLVQPGGSLRLSCAASGFTFSHYTLSWVRQAPGKGLEWVSVISGDGSYTYYADSVKGRFTISSDNSKNTLYLQMNSLRAEDTAVYYCARNFIKYVFANWGQGTLVTVSS VL: DIELTQPPSVSVAPGQTARISCSGDKLGKKYASWYQQKPGQAPVLVIYEKDNRPSGIPERFSGSNSGNTATLTISGTQAEDEADYYCSSFAGNSLEVFGGGTKLTVLG	inhibit Wnt signaling	similarly lost	similarly lost	clearly diminished									
44R24: anti-FZD5/8 IgG antibody, VH SEQ ID NO:85, VL SEQ ID NO:86; ATCC deposit no. PTA-10311 (antibody, V domains shown, 44R24 VH; 44R24 VL, ATCC deposit no; PTA-10311) VH: EVQLVESGGGLVQPGGSLRLSCAASGFTFSSYYITWVRQAPGKGLEWVSTISYSSSNTYYADSVKGRFTISRDNSKNTLYLQMNSLRAEDTAVYYCARSIVFDYWGQGTLVTVSS VL: DIELTQPPSVSVAPGQTARISCSGDALGNRYVYWYQQKPGQAPVLVIPSGIPERFSGSNSGNTATLTISGTQAEDEADYYCGSWDTRPYPKYVFGGGTKLTVLG										elevated	−1.8x	−2.4x	−1.9x
